Reference: the emibetuzumab library of Makowski et al. (2022)

B1: VH:VL chains; a variant is named by its letters at X, in order (parent)
chain 1: QVQLVQSGAEVKKPGASVKVSCKASGYTFTDYXMHWVRQAPGQGLEWMGXVNPNXXXTTYNQKFEGRVTMTTDTSTSTAYMELRSLRSDDTAVYYCARXNXLDXWGQGTTVTVSS
chain 2: DIQMTQSPSSLSASVGDRVTITCSVSSSVSSIYLHWYQQKPGKAPKLLIYSTSNLASGVPSRFSGSGSGTDFTLTISSLQPEDFATYYCQVYSGYPLTFGGGTKVEIK

Variants of: B1
Assay: yeast display scFab, FACS + sequencing
How it was run: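 For the non-specific binding call, a heavy-chain CDR mutant scFab library on the yeast surface was FACS-sorted and samples from two replicates were deep sequenced. Cells were labelled with anti-Myc and either biotinylated ovalbumin (260 μg/mL in PBSB, 3 h, room temperature) or soluble membrane proteins (130 μg/mL, 20 min on ice), with gates on the top 25% and bottom 10% of binders. With membrane protein and ovalbumin samples pooled, a sequence in ≥3 of 4 positive samples and no negatives was scored positive, and the converse rule scored negatives.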

Variant	non-specific binding call
VETGNDGA	no binding
VETGNDGV	no binding
AETKGALD	no binding
VEKGGDGV	no binding
DEGRGDGV	no binding
YEGTGAGA	no binding
VERRGSWS	no binding
YEGTGAVF	no binding
VEKTGVGA	binds
VEKGGDWD	no binding
SERRDVLY	binds
YEGTGDVV	no binding
VETEGSGV	no binding
SEGGSAAY	no binding
DEGRSVAA	binds
SEKKSAGA	no binding
VETEGAGA	no binding
SEGRGDAA	no binding
YEGTGSAD	no binding
VEKEGDGS	no binding
VEKEGDGA	no binding
VEKEGDGV	no binding
YEGTGSWA	no binding
VERGGDSY	no binding
AETKGAVA	no binding

Variant	non-specific binding call
YEKETAGV	binds
SETTDSLD	no binding
VEGTGDWD	no binding
DEGGTAGV	no binding
DEGGTAGA	no binding
YEGGTDGA	no binding
AETKGFAV	no binding
YEGGGYSF	no binding
AEREADWV	no binding
VEGGGYSV	no binding
VEKEGDWY	no binding
DEGGTDVA	no binding
DEGGTDVF	no binding
DEGGTDVD	no binding
DEGGTDVY	no binding
YERRGSWS	no binding
SERRSSAF	no binding
DEGGTDGV	no binding
DEGGTDGS	no binding
DEGGTDGY	no binding
FEKGSDVA	no binding
DEGGTDSA	no binding
DEGGTDSF	no binding
VETEGDAV	no binding
YETGAAAA	no binding

Variant	non-specific binding call
SEGRGAAA	no binding
AETKGDVY	no binding
SEGTGAGV	no binding
VEGGNDGA	no binding
DEGGTAVV	no binding
DEGGTAVA	no binding
DEGGTAAA	no binding
YEKETVVA	binds
DERRSSAF	no binding
DETGGDWF	no binding
VEGTSAAY	no binding
VERGGFGS	binds
SEGTGSGD	no binding
VEGGTDVV	no binding
VEGGTDVA	no binding
SEGRGAWY	no binding
VETGGAVA	no binding
YEKGGAWS	binds
YEKGGDGV	no binding
YEKGGDGA	no binding
YEGRNVGV	binds
VEKGGDVS	no binding
DEGGTDWV	no binding
DEGGTDWD	no binding
DEGGTDWY	no binding

Variant	non-specific binding call
DEKKADWA	no binding
VETEGSSV	no binding
SETTDAGV	no binding
SETTDAGD	no binding
VETGNSSA	no binding
VERKGYLA	binds
VEGTGVGD	binds
VEGTSSSV	no binding
AETKGDWV	no binding
AETKGDWD	no binding
VETEGDWD	no binding
VETEGDWY	no binding
YERRNDVV	no binding
VETGGAAA	no binding
VEREADWF	no binding
YEKEDYLA chain 1 G108D	no binding
FEKEADAF	binds
SEGTGSSV	no binding
AETAGAAA	no binding
SEGRGDGA	no binding
VETEGDGV	no binding
VETEGDGF	no binding
DEGGTSLD	no binding
SETGAALD	no binding
DEGGTSVD	no binding

Variant	non-specific binding call
SETGADVA	no binding
VEKKDYSA	no binding
DEKEGDAA	no binding
VETGNSLV	no binding
SEGTGDWV	no binding
VEKGGDAA	no binding
SETGGDVA	no binding
VETGNDAV	no binding
DEGTGAVA	no binding
DEGGTSGV	no binding
AEGGTDVV	no binding
FETGGYVY	no binding
YETKGDWD	no binding
DETKGDWD	no binding
VEGTSSLD	no binding
VEGTSAGD	no binding
FERRAFGY	binds
YETEGDVF	no binding
VEGTSDGD	no binding
VEGKGAGD	no binding
SETTDSSA	no binding
VETGNAVY	no binding
DEGKAAGS	no binding
YEGTGSGD	no binding
FEGGTDVV	no binding

Variant	non-specific binding call
AEGTNAGD	no binding
VEKEGDVY	no binding
SETGGAGD	no binding
SETTDDAV	no binding
VEKGGSGD	no binding
VEKGGSGV	no binding
SEKKDYSA	no binding
VERGTYGV	no binding
VEGTNDVV	no binding
DEKGGSSA	no binding
VEGTSAVF	no binding
VEGTSAVY	no binding
AETGASLS	no binding
AETKGAAA	no binding
FEKEGDAA	no binding
SETGNVWF	no binding
DEGRGDWY	no binding
SETGGFVV	no binding
DEGGTALA	no binding
DEGKGFGS	binds
SEGGTDVV	no binding
SEGRGDVY	no binding
SETKGDVY	no binding
DETGGSSD	no binding
YERESAAV	no binding

Variant	non-specific binding call
DEGRGSWA	no binding
SETTDDVA	no binding
VEGRGDGY	no binding
VEGRGDGA	no binding
VETKGDWD	no binding
FERTSVWF chain 1 L45F	binds
DEGGTSAD	no binding
DEGGTDAA	no binding
DEGGTDAV	no binding
VETGNDVA	no binding
DEGGTDLD	no binding
AETKGDGA	no binding
AETKGDGV	no binding
VEGTSDLS	no binding
YEGGTSGA	no binding
SEKEGDAA	no binding
VEGRGDAV	no binding
VEGTSSGD	no binding
VETRSDVA	no binding
YEKGGDVY	no binding
YEKGGDVD	no binding
SEGTSAVF	no binding
DEGTDYAA	binds
YERRDVLY	binds
DETRSAGA	no binding

Variant	non-specific binding call
VEGRGDVF	no binding
VEGRGAVY	no binding
VETTDSWV	no binding
SEKKADWA	no binding
YEGGTDVV	no binding
SETKGDWA	no binding
SETKGDWD	no binding
SEGRGSGV	no binding
VEKEGDAD	no binding
SETGGDWV	no binding
VEGTGAGD	no binding
YEGRGDVA	no binding
SEREADWF	no binding
AERRDDGA	no binding
DETGNVWF	no binding
VETGNDLV	no binding
VEGTSDVV	no binding
VETGNSGA	no binding
VETEGDVA	no binding
VETEGDVY	no binding
AEGRGAVY	no binding
YETETALY	no binding
VETRSSSV	no binding
YETGNVWF	no binding
VERASAVV	no binding

Variant	non-specific binding call
DEGTGALA	no binding
DEGGTSSA	no binding
DETEGDVF	no binding
VEGTSASV	no binding
YEKGGAGD	no binding
AETKGSLA	no binding
YEGTGSLS	no binding
DEGKDDVA	no binding
FERTSALF	binds
AEGTSAVF	no binding
VEKEGAGD	no binding
YERTTDLS	binds
AERRGSWS	no binding
YETTDSWV	no binding
YERRSSAF	no binding
SEKGGSSA	no binding
VEGGTAGS	no binding
VETEGAVY	no binding
